The values that follow come from paper PMC11836289, “A humanized NOVA1 splicing factor alters mouse vocal communications”.

In data set [1] the target is T1, NOVA1hu (humanized) (UniProt Q9JKN6 1-507, I197V).
T1 sequence: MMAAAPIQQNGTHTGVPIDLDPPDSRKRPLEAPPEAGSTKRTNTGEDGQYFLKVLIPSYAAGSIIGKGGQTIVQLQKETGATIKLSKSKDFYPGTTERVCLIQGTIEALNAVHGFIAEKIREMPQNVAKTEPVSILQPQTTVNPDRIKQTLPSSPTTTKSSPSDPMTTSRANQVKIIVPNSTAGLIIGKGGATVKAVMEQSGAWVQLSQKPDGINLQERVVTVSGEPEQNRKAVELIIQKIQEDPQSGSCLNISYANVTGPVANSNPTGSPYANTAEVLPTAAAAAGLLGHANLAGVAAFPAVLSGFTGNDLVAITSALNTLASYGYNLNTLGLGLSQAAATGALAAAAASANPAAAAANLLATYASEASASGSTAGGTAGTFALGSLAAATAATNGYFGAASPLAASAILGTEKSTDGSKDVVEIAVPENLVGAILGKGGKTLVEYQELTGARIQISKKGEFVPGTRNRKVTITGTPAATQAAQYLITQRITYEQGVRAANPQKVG
As to the kind of experiment: EMSA; text prints 105.83 ± 8.3; figure and source data 105.3; 10 mM HEPES (pH not stated), 3 mM MgCl2, 150 mM NaCl, 5% glycerol, 0.1 mM DTT, 0.1 U/ul RNase OUT, 10 mg/ml yeast tRNA, 1 mg/ml poly dI-dC, 22 C, 60 min; protein 0.5-2 pmol, RNA 0.08 pmol per reaction; 8% native gel. The note with it: protein: recombinant; tags: GST tag (N-term) cleaved by PreScission; pGEX6p1 remnant; label: 32P; hairpin. In general terms: A gel shift assay detects complexes by their altered migration in electrophoresis.

Data set [2] deals with T2, NOVA1wt (UniProt Q9JKN6 1-507).
T2 sequence: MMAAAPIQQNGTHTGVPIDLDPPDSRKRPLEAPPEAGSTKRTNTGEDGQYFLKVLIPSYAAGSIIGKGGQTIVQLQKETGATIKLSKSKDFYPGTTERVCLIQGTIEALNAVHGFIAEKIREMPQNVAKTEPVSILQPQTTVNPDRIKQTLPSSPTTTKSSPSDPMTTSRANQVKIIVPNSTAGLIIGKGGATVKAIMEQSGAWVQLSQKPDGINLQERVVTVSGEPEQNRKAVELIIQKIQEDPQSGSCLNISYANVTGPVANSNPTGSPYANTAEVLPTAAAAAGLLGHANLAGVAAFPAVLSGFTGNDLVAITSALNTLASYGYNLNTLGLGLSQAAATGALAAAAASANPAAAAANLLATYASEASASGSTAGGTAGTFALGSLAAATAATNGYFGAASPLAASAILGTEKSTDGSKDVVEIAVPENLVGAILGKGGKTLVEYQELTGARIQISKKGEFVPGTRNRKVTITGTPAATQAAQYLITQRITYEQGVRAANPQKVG
Put plainly: EMSA; 10 mM HEPES (pH not stated), 3 mM MgCl2, 150 mM NaCl, 5% glycerol, 0.1 mM DTT, 0.1 U/ul RNase OUT, 10 mg/ml yeast tRNA, 1 mg/ml poly dI-dC, 22 C, 60 min; protein 0.5-2 pmol, RNA 0.08 pmol per reaction; 8% native gel. Conditions: protein: recombinant; tags: GST tag (N-term) cleaved by PreScission; pGEX6p1 remnant; label: 32P; hairpin.

B1: UCAU RNA probe (stem-loop) (structured_RNA)
RNA: CCUUAUCAUGCUGACUCACGUCAUUUCAUCUCAUCAAGGGAGUCAGUGGGAUA
For orientation: Kd means a measure of binding affinity in units of concentration. For the molecule B1, the Kd in data set [1] is 105 ± 8.3 nM; in data set [2], 105 ± 11.6 nM.
